Measured values as given in PMC3874162 (Nucleic Acids Research, 2013).

B1: Cdc13 (full-length S. cerevisiae Cdc13) (natural protein, UniProt P32797 1-924, looked up)
chain: MDTLEEPECPPHKNRIFVSSSKDFEGYPSKAIVPVQFVALLTSIHLTETKCLLGFSNFERRGDQSQEDQYLIKLKFKDRGSERLARITISLLCQYFDIELPDLDSDSGASPTVILRDIHLERLCFSSCKALYVSKHGNYTLFLEDIKPLDLVSVISTISTKSTNSSKHSSSELISECDLNNSLVDIFNNLIEMNRDEKNRFKFVKLIHYDIELKKFVQDQQKVLSQKSKAAAINPFFVPNRLGIPYIESQNEFNSQLMTLNVDEPTTDISNMGEEMHDSADPIEDSDSSTTSSTGKYFSSKSYIQSQTPERKTSVPNNWHDDDSGSKRKRKLSFHSPNASSIRKAISYEQLSLASVGSVERLEGKIVGMNPPQFASINEFKYCTLKLYFTQLLPNVPDKVLVPGVNCIEIVIPTRERICELFGVLNCQSDKISDILLLEKPDRISVEVERILWDNDKTASPGMAVWSLKNISTDTQAQAQVQVPAQSSASIDPSRTRMSKMARKDPTIEFCQLGLDTFETKYITMFGMLVSCSFDKPAFISFVFSDFTKNDIVQNYLYDRYLIDYENKLELNEGFKAIMYKNQFETFDSKLRKIFNNGLRDLQNGRDENLSQYGIVCKMNIKVKMYNGKLNAIVRECEPVPHSQISSIASPSQCEHLRLFYQRAFKRIGESAISRYFEEYRRFFPIHRNGSHLAKLRFDEVKHEPKKSPTTPALAEHIPDLNADVSSFDVKFTDISSLLDSSARLPRPQQTHKSNTLYSCEGRIIAIEYHASDLCFHITNELPLLQTRGLAPERVLQLHIITSKNFAYFFNRSSAYLQRQPLEEKYTQLAQFLGHSFKFNITSSLTLFPDTTVALQIWCPIECTFRELQQQLAHPKVAAAPDSGSLDCAINATVNPLRLLAAQNGVTVKKEEDNDDDAGAVPTS
B2: Cdc13-MOB (middle OB-fold domain, residues 344-496) (domain or fragment, S. cerevisiae, UniProt P32797 344-496, looked up)
chain: KAISYEQLSLASVGSVERLEGKIVGMNPPQFASINEFKYCTLKLYFTQLLPNVPDKVLVPGVNCIEIVIPTRERICELFGVLNCQSDKISDILLLEKPDRISVEVERILWDNDKTASPGMAVWSLKNISTDTQAQAQVQVPAQSSASIDPSRT

Columns and labels:
[1] = molecular target: the molecule itself; experiment: SEC-MALS
[2] = molecular target: the molecule itself; experiment: native gel or EMSA

| Protein | stoichiometry N [1] | Kd [2] |
| --- | --- | --- |
| B1 | 2 | 5.1 nM |
| B2 | 2 | – |
